Data as given in US20240150451A1 (Janssen / Centocor, published 2024).

T1: Tau peptide Start 415 Stop 434
T1 peptide: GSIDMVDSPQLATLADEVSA

T2: Tau peptide Start 417 Stop 436
T2 peptide: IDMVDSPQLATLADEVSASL

T3: Tau peptide Start 419 Stop 438
T3 peptide: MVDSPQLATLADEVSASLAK

T4: Tau peptide Start 421 Stop 440
T4 peptide: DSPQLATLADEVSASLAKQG

T5: Tau peptide Start 422 Stop 441
T5 peptide: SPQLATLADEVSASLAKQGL

T6: Tau peptide Start 3 Stop 22 (Synthetic linear peptide immobilised on a Pepscan array; the attachment to the array cannot be carried by the letters.)
T6 peptide: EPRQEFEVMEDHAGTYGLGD

T7: Tau peptide Start 411 Stop 430
T7 peptide: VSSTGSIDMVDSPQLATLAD

T8: Tau peptide Start 413 Stop 432
T8 peptide: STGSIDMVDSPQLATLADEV


Assays:
[1] = molecular target: T9, recombinant full-length tau 2N4R (control tau) (human, UniProt P10636 2-758); assay: direct ELISA on full-length 2N4R Tau coated at 1 ng/mL
T9 construct: also called recombinant WT (2N4R) tau; Rec; Tau
Protocol: (§1) Binding to recombinant WT (2N4R) tau was analyzed by ELISA. Full-length Tau protein (1 ng/mL or 10 ng/mL) was directly coated to the plate and incubated with different concentrations of either recombinantly- or hybridoma-produced PT/66, PT/69 or hTau/60 antibodies (FIG. 1). […] No substantial difference was observed between binding profiles of recombinant and hybridoma produced antibodies.

[2] = molecular target: T9, recombinant full-length tau 2N4R …; assay: direct ELISA on full-length 2N4R Tau coated at 10 ng/mL
Protocol: as §1

[3] = molecular target: T1, Tau peptide Start 415 Stop 434; assay: Pepscan ELISA on an array of linear 20-mer Tau 441 peptides; parameters: peptide ELISA signal (no name or unit printed): unit not given here
Source text: (§2) An amino functionalized polypropylene support was obtained by grafting with a proprietary hydrophilic polymer formulation, followed by reaction with t-butyloxycarbonyl-hexamethylenediamine (BocHMDA) using dicyclohexylcarbodiimide (DCC) with N-hydroxybenzotriazole (HOBt), and subsequent cleavage of the Boc-groups using trifluoroacetic acid (TFA). Standard Fmoc-peptide synthesis was used to synthesize peptides on the amino-functionalized solid support by custom modified JANUS liquid handling stations (Perkin Elmer). Synthesis of structural mimics was done using Pepscan's proprietary Chemically Linked Peptides on Scaffolds (CLIPS) technology. CLIPS technology allows to structure peptides into single loops, double loops, triple loops, sheet-like folds, helix-like folds, and combinations thereof. CLIPS templates are coupled to cysteine residues. The side-chains of multiple cysteines in the peptides are coupled to one or two CLIPS templates. For example, a 0.5 mM solution of the P2 CLIPS (2,6-bis(bromomethyl)pyridine) is dissolved in ammonium bicarbonate (20 mM, pH 7.8)/acetonitrile (1:3 (v/v)). This solution is added onto the peptide arrays. The CLIPS template will bind to side-chains of two cysteines as present in the solid-phase bound peptides of the peptide-arrays (455 wells plate with 3 μl wells). The peptide arrays are gently shaken in the solution for 30 to 60 minutes while completely covered in solution. Finally, the peptide arrays are washed extensively with excess of H₂O and sonicated in disrupt-buffer containing 1% SDS/0.1% beta-mercaptoethanol in PBS (pH 7.2) at 70° C. for 30 minutes, followed by sonication in H₂O for another 45 minutes. The T3 CLIPS carrying peptides were made in a similar way but now with three cysteines.
(§3) The binding of antibodies (recombinantly expressed as IgG2a) to each of the synthesized peptides was tested in a pepscan-based ELISA. The peptide arrays were incubated with primary antibody solution (overnight at 4° C.). After washing, the peptide arrays were incubated with a 1/1000 dilution of an appropriate antibody peroxidase conjugate (SBA; Table 4) for one hour at 25° C. After washing, the peroxidase substrate 2,2′-azino-di-3-ethylbenzthiazoline sulfonate (ABTS) and 20 μl/ml of 3 percent H₂O₂ were added. After one hour, the color development was measured.

[4] = molecular target: T2, Tau peptide Start 417 Stop 436; assay: as above; parameters: peptide ELISA signal (no name or unit printed): unit not given here
Source text: as §2, §3

[5] = molecular target: T3, Tau peptide Start 419 Stop 438; assay: as above; parameters: peptide ELISA signal (no name or unit printed): unit not given here
Source text: as §2, §3

[6] = molecular target: T4, Tau peptide Start 421 Stop 440; assay: as above; parameters: peptide ELISA signal (no name or unit printed): unit not given here
Source text: as §2, §3

[7] = molecular target: T5, Tau peptide Start 422 Stop 441; assay: as above; parameters: peptide ELISA signal (no name or unit printed): unit not given here
Source text: as §2, §3

[8] = molecular target: Tau peptide Start 1 Stop 20 (Synthetic linear peptide immobilised on a Pepscan array; the attachment to the array cannot be carried by the letters.); assay: as above; parameters: peptide ELISA signal (no name or unit printed): unit not given here
Chain of Tau peptide Start 1 Stop 20 (Synthetic linear peptide immobilised on a Pepscan array; the attachment to the array cannot be carried by the letters.) (peptide, as listed by the source limits assumed): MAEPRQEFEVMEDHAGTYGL
Source text: as §2, §3

[9] = molecular target: T6, Tau peptide Start 3 Stop 22; assay: as above; parameters: peptide ELISA signal (no name or unit printed): unit not given here
Source text: as §2, §3

[10] = molecular target: T7, Tau peptide Start 411 Stop 430; assay: as above; parameters: peptide ELISA signal (no name or unit printed): unit not given here
Source text: as §2, §3

[11] = molecular target: T8, Tau peptide Start 413 Stop 432; assay: as above; parameters: peptide ELISA signal (no name or unit printed): unit not given here
Source text: as §2, §3

[12] = molecular target: T10, PHF-tau (paired helical filament tau; sarcosyl insoluble prep from human AD brain) (human, UniProt P10636-8 2-441, limits assumed, hyper-phosphorylated (sites not specified)); assay: SPR (ProteOn), mAb on PHF-tau, bivalent analyte fit; apparent affinity (avidity)
T10 construct: also called aggregated PHF Tau; aggregated tau (AD brain)
Protocol: (§4) The interactions with PHF-tau and recombinant tau were assessed by SPR on ProteOn (Bio-Rad, Hercules, CA) instrument for PT66, PT69, hTau60 anti-tau antibodies and their corresponding Fab fragments. Because of the multimeric/aggregated nature of PHF-tau with multiple copies of the epitope, and the bivalent nature of IgGs, mAb affinity was influenced by avidity in this study format. Fab affinity provides information on the intrinsic affinity of the antibody. Representative sensorgrams of mAbs and their Fab fragments binding to PHF Tau are shown in FIG. 3 and a summary is represented in Table 1 below. HT7 was used as a reference.

[13] = molecular target: T10, PHF-tau (paired helical filament tau; …); assay: SPR (ProteOn), Fab on PHF-tau, 1:1 Langmuir fit
Protocol: as §4

[14] = molecular target: T9, recombinant full-length tau 2N4R …; assay: SPR (ProteOn), Fab on recombinant full-length tau, 1:1 Langmuir fit
Protocol: as §4

Binder | EC50 (read off the curve) [1] | EC50 (read off the curve) [2] | binding result [3] | peptide ELISA signal (no name or unit printed) [3] | binding result [4] | peptide ELISA signal (no name or unit printed) [4] | binding result [5] | peptide ELISA signal (no name or unit printed) [5] | peptide ELISA signal (no name or unit printed) [6] | peptide ELISA signal (no name or unit printed) [7] | peptide ELISA signal (no name or unit printed) [8] | peptide ELISA signal (no name or unit printed) [9] | peptide ELISA signal (no name or unit printed) [10] | binding result [11] | peptide ELISA signal (no name or unit printed) [11] | Kd [12] | Kd [13] | Kd [14]
PT/66 hybridoma (antibody, V domains shown, parent of m2; also called hybridoma-produced PT/66) VH: QVQLQQPGAELVKPGASVKMSCKASGYTFTSYWITWVKQRPGQGLEWIGDIHPGRGSTKSNEKFKSKATLTVDTSSSTAYMQFSSLTSEDSAVYYCARRWGFDYWGQGTTLTVSS VL: DIVITQDELSNPVTSGESVSISCRSSKSLLYKDGKTYLNWFLQRPGQSPQLLIYLMSTRASGVSDRFSGSGSGTDFTLEISRVKAEDVGVYYCQQLVDYPLTFGAGTKLELK | ~10 ng/mL | ~5 ng/mL | – | – | – | – | – | – | – | – | – | – | – | – | – | – | – | –
PT66 monoclonal antibody (recombinant, mouse IgG2a/kappa) (antibody, V domains shown, also called PT66 (PT1B545)) VH: QVQLQQPGAELVKPGASVKMSCKASGYTFTSYWITWVKQRPGQGLEWIGDIHPGRGSTKSNEKFKSKATLTVDTSSSTAYMQFSSLTSEDSAVYYCARRWGFDYWGQGTTLTVSS VL: DIVITQDELSNPVTSGESVSISCRSSKSLLYKDGKTYLNWFLQRPGQSPQLLIYLMSTRASGVSDRFSGSGSGTDFTLEISRVKAEDVGVYYCQQLVDYPLTFGAGTKLELKR | ~40 ng/mL | ~10 ng/mL | – | 2930 | – | 2940 | – | 2930 | 2930 | 2950 | 40 | 45 | 50 | – | 2520 | 0.056 nM | – | –
PT66 Fab (chimeric: mouse variable domains, human IgG1/kappa constant domains, His tag) (Fab, V domains shown, Fab expressed in HEK293F cells; also called PT66 Fab fragment; not shown: His tag at the C-terminus of the heavy chain; human kappa light chain constant domain) VH: QVQLQQPGAELVKPGASVKMSCKASGYTFTSYWITWVKQRPGQGLEWIGDIHPGRGSTKSNEKFKSKATLTVDTSSSTAYMQFSSLTSEDSAVYYCARRWGFDYWGQGTTLTVSS VL: DIVITQDELSNPVTSGESVSISCRSSKSLLYKDGKTYLNWFLQRPGQSPQLLIYLMSTRASGVSDRFSGSGSGTDFTLEISRVKAEDVGVYYCQQLVDYPLTFGAGTKLELK | – | – | – | – | – | – | – | – | – | – | – | – | – | – | – | – | 0.514 nM | 0.04 nM
PT69 monoclonal antibody (recombinant, mouse IgG2a/kappa) (antibody, V domains shown, also called PT69/PT87; PT69 (PT1B548)) VH: QVQLQQPGAELVKPGASVKMSCKASGYTFTNYWITWVKQRPGQGLEWIGDIYPGSGRTKSNEKFKNKATLTADTSSSTAYMQLSSLTSEDSAVYYCTRRWGLDYWGQGTTLTVSS VL: DIVITQDELSNPVTSGESVSISCRSNKSLLYKDGKTYLNWFLQRPGQSPQLLIYLMSTRASGVSDRFSGSGSGTDFTLEISRVKAEDVGVYYCQQLVDYPLTFGAGTKLELKR | – | – | – | 2830 | – | 2920 | – | 2920 | 2930 | 2930 | 30 | 38 | 43 | – | 1380 | – | – | –

Other lines, results leading:

EC50 (read off the curve) [1] | EC50 (read off the curve) [2] | binding result [3] | peptide ELISA signal (no name or unit printed) [3] | binding result [4] | peptide ELISA signal (no name or unit printed) [4] | binding result [5] | peptide ELISA signal (no name or unit printed) [5] | peptide ELISA signal (no name or unit printed) [6] | peptide ELISA signal (no name or unit printed) [7] | peptide ELISA signal (no name or unit printed) [8] | peptide ELISA signal (no name or unit printed) [9] | peptide ELISA signal (no name or unit printed) [10] | binding result [11] | peptide ELISA signal (no name or unit printed) [11] | Kd [12] | Kd [13] | Kd [14] | Binder
~10 ng/mL | ~10 ng/mL | no binding | 24 | no binding | 48 | no binding | 45 | 2910 | 2920 | 48 | 44 | 36 | no binding | 46 | 0.069 nM | – | – | hTau60 monoclonal antibody (recombinant, mouse IgG2a/kappa) (antibody, V domains shown, also called hTau60 (PT1B469)) VH: EVQLQQSGPELVKPGTSVKISCKVFGYTFTDYYMNWVKQSHGKSLEWIGDINPDNGETTYNQKFKGKATLTVDKSSSTAYMELRSLTSEDSAVYYCAKGATFVYWGQGTLVTVSA VL: DVVMTQTPLSLPVSLGDQASISCISSQSLVHSTGTTFLHWFLQKPGQSPKLLIYKVSNRFSGVPDRFSGSGSGTDFTLKISRVEAEDLGFYFCSQSTYFPLTFGSGTKLEIKR
– | – | – | – | – | – | – | – | – | – | – | – | – | – | – | – | 0.427 nM | 0.026 nM | hTau60 Fab (chimeric: mouse variable domains, human IgG1/kappa constant domains, His tag) (Fab, V domains shown, Fab expressed in HEK293F cells; also called hTau60 Fab fragment; not shown: His tag at the C-terminus of the heavy chain; human kappa light chain constant domain) VH: EVQLQQSGPELVKPGTSVKISCKVFGYTFTDYYMNWVKQSHGKSLEWIGDINPDNGETTYNQKFKGKATLTVDKSSSTAYMELRSLTSEDSAVYYCAKGATFVYWGQGTLVTVSA VL: DVVMTQTPLSLPVSLGDQASISCISSQSLVHSTGTTFLHWFLQKPGQSPKLLIYKVSNRFSGVPDRFSGSGSGTDFTLKISRVEAEDLGFYFCSQSTYFPLTFGSGTKLEIK
~5 ng/mL | ~5 ng/mL | – | – | – | – | – | – | – | – | – | – | – | – | – | – | – | – | hTau/60 hybridoma (antibody, V domains shown, parent of m1; also called hybridoma-produced hTau/60) VH: EVQLQQSGPELVKPGTSVKISCKVFGYTFTDYYMNWVKQSHGKSLEWIGDINPDNGETTYNQKFKGKATLTVDKSSSTAYMELRSLTSEDSAVYYCAKGATFVYWGQGTLVTVSA VL: DVVMTQTPLSLPVSLGDQASISCISSQSLVHSTGTTFLHWFLQKPGQSPKLLIYKVSNRFSGVPDRFSGSGSGTDFTLKISRVEAEDLGFYFCSQSTYFPLTFGSGTKLEIK
